# ± gives the standard deviation of the averaged measurements.
# Test system: ATP
# Assay: switch fluorescence ratio, 500 uM ATP over buffer (Cy3 cluster intensity, sum of 5 cycles each) (fold (ratio)); higher = stronger signal-on switching upon ATP binding; sequences stand for … in TCGTCGGCAGCGTCAGATGTGTATAAGAGACAGTTTTTTTTTTTTTTTTTTTTTTTTT…TC
# Settings: aptamer strand: ATP DNA aptamer (quencher-CACCTGGGGGAGTATTGCGGAGGAAGG + anchor), 100 nM annealed; ATP concentration: 500 uM
# Summary of the method: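 After annealing to 100 nM quencher-labelled ATP aptamer, Cy3-labelled switching-strand clusters on a modified Illumina MiSeq flow-cell were imaged in selection buffer. A second image followed after 15 min with 500 uM ATP at 22 °C, and five such buffer/ATP cycles were done, each separated by NaOH stripping and re-annealing. The fluorescence ratio, averaged per switch-domain sequence, is summed target-cycle over summed buffer-cycle Cy3 intensity per cluster, with clusters outside 100-1000 RFU excluded.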
# 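Note: ATP exposure 15 min at 22 °C before imaging.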
row,Sequence,switch fluorescence ratio
1,TTGCAATTGG,2.56 ± 2
2,TTGCACCGTT,1.01 ± 0.038
3,TTGCACGCCT,1.01 ± 0.024
4,TTGCACGGTC,1.03 ± 0.085
5,TTGCAGACTT,1.05 ± 0.072
6,TTGCAGGGGA,1.3 ± 0.38
7,TTGCAGGTGT,1.85 ± 0.47
8,TTGCAGTGTT,1.06 ± 0.098
9,TTGCATACGT,1.61 ± 0.76
10,TTGCATTTGG,1.01 ± 0.088
11,TTGCATTTGT,1 ± 0.03
12,TTGCCAAATT,1.12 ± 0.13
13,TTGCCGCACG,1.15 ± 0.024
14,TTGCCGGCTC,1.03 ± 0.029
15,TTGCCTGCGG,0.999 ± 0.0067
16,TTGCCTGTAT,0.9731 ± 0.0073
17,TTGCGACACC,1.06 ± 0.042
18,TTGCGCTACG,1.01 ± 0.011
19,TTGCGCTCGT,0.993 ± 0.011
20,TTGCGGCCTT,1.09 ± 0.081
21,TTGCGGCGCT,1.01 ± 0.043
22,TTGCGGCGGT,0.983 ± 0.033
23,TTGCGGGTGA,1.01 ± 0.059
24,TTGCGGTCGT,1.002 ± 0.0023
25,TTGCGGTGGG,1.03 ± 0.018

row,Sequence,switch fluorescence ratio
1,TTGCGTCATT,1.03 ± 0.016
2,TTGCGTGTGA,1.01 ± 0.028
3,TTGCGTTAGG,1.04 ± 0.012
4,TTGCGTTATC,1.2 ± 0.27
5,TTGCGTTGCG,0.9685 ± 0.0036
6,TTGCGTTGGC,0.984 ± 0.043
7,TTGCTACACG,1.04 ± 0.02
8,TTGCTACTCG,1.62 ± 0.73
9,TTGCTATCTT,0.983 ± 0.052
10,TTGCTATGGG,0.978 ± 0.017
11,TTGCTATGTG,0.979 ± 0.015
12,TTGCTCAAGC,0.999 ± 0.068
13,TTGCTCGAAA,0.987 ± 0.075
14,TTGCTGATTC,0.9811 ± 0.0067
15,TTGCTGGGGG,1.01 ± 0.059
16,TTGCTGTTAC,1.15 ± 0.15
17,TTGCTGTTAG,0.995 ± 0.0074
18,TTGCTGTTTC,1 ± 0.067
19,TTGCTTAAGG,0.997 ± 0.026
20,TTGCTTCAGC,0.994 ± 0.097
21,TTGCTTGAGC,1.006 ± 0.0092
22,TTGCTTGGAA,0.992 ± 0.026
23,TTGCTTGGGA,1.04 ± 0.014
24,TTGCTTTGTG,1 ± 0.042
25,TTGCTTTTGC,1 ± 0.023

row,Sequence,switch fluorescence ratio
1,TTGCTTTTGT,1.02 ± 0.025
2,TTGCTTTTTT,0.992 ± 0.013
3,TTGGAAAATG,1.02 ± 0.037
4,TTGGAAGGGT,1.01 ± 0.031
5,TTGGAATAAA,1.02 ± 0.015
6,TTGGAATCGA,1.06 ± 0.035
7,TTGGACCGTG,0.973 ± 0.069
8,TTGGACGGTA,1.06 ± 0.1
9,TTGGACTCCG,1.14 ± 0.15
10,TTGGACTCTT,0.977 ± 0.038
11,TTGGAGAGGG,1.06 ± 0.058
12,TTGGAGATAT,1.07 ± 0.13
13,TTGGAGCACG,1.03 ± 0.049
14,TTGGAGGACA,1.06 ± 0.019
15,TTGGAGGCGT,0.9814 ± 0.0057
16,TTGGAGGGGC,1 ± 0.071
17,TTGGAGGTCG,1.03 ± 0.019
18,TTGGAGTCTG,0.994 ± 0.015
19,TTGGAGTTTG,1.02 ± 0.051
20,TTGGATAGCG,0.982 ± 0.017
21,TTGGATATTT,1 ± 0.015
22,TTGGATCGCA,0.985 ± 0.017
23,TTGGATGAAG,0.982 ± 0.022
24,TTGGATGACA,1.02 ± 0.031
25,TTGGATGTGA,0.9622 ± 0.0052

row,Sequence,switch fluorescence ratio
1,TTGGATTAGG,1.01 ± 0.024
2,TTGGATTGTT,1.04 ± 0.025
3,TTGGATTTAT,1.011 ± 0.0093
4,TTGGCACCCG,1.04 ± 0.034
5,TTGGCCGCAT,1.24 ± 0.09
6,TTGGCCGTAG,1.01 ± 0.028
7,TTGGCGAAGG,0.982 ± 0.045
8,TTGGCGCCGT,0.998 ± 0.044
9,TTGGCGCGGC,1.1 ± 0.063
10,TTGGCGCTGT,0.971 ± 0.0017
11,TTGGCGGGAT,1.03 ± 0.017
12,TTGGCGGTGG,1.08 ± 0.26
13,TTGGCGTCAA,1.36 ± 0.51
14,TTGGCTCGCA,1.11 ± 0.15
15,TTGGGAAAAT,1.01 ± 0.05
16,TTGGGAACGT,1 ± 0.11
17,TTGGGAAGCG,1.001 ± 0.0093
18,TTGGGACAAA,1.05 ± 0.061
19,TTGGGACGTC,1.02 ± 0.048
20,TTGGGACTTA,1.01 ± 0.03
21,TTGGGAGAAT,1.02 ± 0.09
22,TTGGGAGGTG,1.05 ± 0.051
23,TTGGGATACG,1.18 ± 0.23
24,TTGGGATTTT,1.01 ± 0.033
25,TTGGGCAGGG,0.982 ± 0.036

row,Sequence,switch fluorescence ratio
1,TTGGGCGGGG,1.03 ± 0.043
2,TTGGGCGGGT,0.994 ± 0.041
3,TTGGGCGGTG,1.01 ± 0.018
4,TTGGGCTATT,1.01 ± 0.015
5,TTGGGGAATA,1.05 ± 0.035
6,TTGGGGAGGA,0.998 ± 0.044
7,TTGGGGAGTA,0.9929 ± 0.0089
8,TTGGGGCACG,0.99 ± 0.02
9,TTGGGGCACT,0.985 ± 0.016
10,TTGGGGCGGA,0.9923 ± 0.0095
11,TTGGGGCGGT,1.05 ± 0.15
12,TTGGGGCGTG,0.971 ± 0.057
13,TTGGGGGCTA,1 ± 0.04
14,TTGGGGGTAG,1.04 ± 0.13
15,TTGGGGGTAT,1.05 ± 0.068
16,TTGGGGGTGG,1.01 ± 0.04
17,TTGGGGTCTG,1.02 ± 0.023
18,TTGGGGTGCG,0.995 ± 0.011
19,TTGGGGTGGC,0.965 ± 0.061
20,TTGGGGTGGT,0.993 ± 0.032
21,TTGGGGTGTC,1.01 ± 0.021
22,TTGGGGTTGT,1.03 ± 0.12
23,TTGGGGTTTT,1.01 ± 0.037
24,TTGGGTACGG,1.03 ± 0.016
25,TTGGGTAGGC,0.985 ± 0.022

row,Sequence,switch fluorescence ratio
1,TTGGGTCGAT,0.985 ± 0.024
2,TTGGGTCGGC,1.0032 ± 0.001
3,TTGGGTGCCT,0.999 ± 0.028
4,TTGGGTGCTT,1.02 ± 0.041
5,TTGGGTGGTG,0.983 ± 0.033
6,TTGGGTGGTT,0.9815 ± 0.0026
7,TTGGGTTGAG,0.999 ± 0.016
8,TTGGGTTGGG,0.987 ± 0.018
9,TTGGGTTTTG,0.994 ± 0.031
10,TTGGTAAAAA,1.25 ± 0.41
11,TTGGTAAAAG,1.02 ± 0.033
12,TTGGTAAAAT,0.978 ± 0.041
13,TTGGTAAAGG,0.999 ± 0.048
14,TTGGTATATT,1.02 ± 0.016
15,TTGGTCGCTG,1.01 ± 0.011
16,TTGGTCGTAC,1.03 ± 0.015
17,TTGGTCTGGG,1.01 ± 0.064
18,TTGGTGACCG,1.03 ± 0.036
19,TTGGTGAGAG,0.997 ± 0.019
20,TTGGTGCGGG,0.98 ± 0.044
21,TTGGTGGAAT,1.06 ± 0.093
22,TTGGTGGGGT,1 ± 0.033
23,TTGGTGGTT,0.9809 ± 0.0089
24,TTGGTGTGGG,0.986 ± 0.045
25,TTGGTTACAG,0.978 ± 0.031

row,Sequence,switch fluorescence ratio
1,TTGGTTAGTT,0.981 ± 0.027
2,TTGGTTCGC,0.994 ± 0.094
3,TTGGTTGGAC,1.028 ± 0.0092
4,TTGGTTGGCT,1.01 ± 0.018
5,TTGGTTGGTT,0.978 ± 0.019
6,TTGGTTGTTT,1 ± 0.052
7,TTGGTTTAAA,1 ± 0.022
8,TTGGTTTAGA,0.979 ± 0.028
9,TTGGTTTAGT,1.01 ± 0.025
10,TTGGTTTCGA,0.98 ± 0.013
11,TTGGTTTGGT,0.988 ± 0.03
12,TTGGTTTGTC,0.99 ± 0.037
13,TTGGTTTTCC,1.01 ± 0.028
14,TTGGTTTTCT,0.994 ± 0.045
15,TTGGTTTTTC,1.01 ± 0.025
16,TTGTAAATGC,1.26 ± 0.29
17,TTGTAACATT,1.015 ± 0.0014
18,TTGTAATTGC,1.29 ± 0.34
19,TTGTACCAAA,0.992 ± 0.047
20,TTGTAGACGT,1.02 ± 0.0093
21,TTGTAGGACC,1 ± 0.056
22,TTGTAGGAGC,0.965 ± 0.14
23,TTGTAGGGTT,1.02 ± 0.024
24,TTGTAGGTTT,1.58 ± 0.79
25,TTGTATAAGA,1.003 ± 0.0088

row,Sequence,switch fluorescence ratio
1,TTGTATATGC,1.16 ± 0.23
2,TTGTATGGGT,0.98 ± 0.019
3,TTGTATTGGA,0.995 ± 0.015
4,TTGTCCCTTT,0.9848 ± 0.0074
5,TTGTCCGCGG,1.06 ± 0.091
6,TTGTCGGGCC,0.964 ± 0.039
7,TTGTCGGTCT,0.972 ± 0.018
8,TTGTCTATGA,0.986 ± 0.028
9,TTGTCTTTTT,0.998 ± 0.015
10,TTGTGCAAAT,1.009 ± 0.006
11,TTGTGCTGGT,1 ± 0.033
12,TTGTGCTGTA,1.02 ± 0.013
13,TTGTGCTTAA,0.989 ± 0.052
14,TTGTGCTTGT,0.983 ± 0.019
15,TTGTGGAATG,1.015 ± 0.0094
16,TTGTGGCCAT,0.974 ± 0.022
17,TTGTGGCGTG,1 ± 0.034
18,TTGTGGGGCA,1.02 ± 0.021
19,TTGTGGGGTG,1.01 ± 0.044
20,TTGTGGTTTC,1.01 ± 0.017
21,TTGTGTAGGC,0.984 ± 0.025
22,TTGTGTCTTT,0.986 ± 0.017
23,TTGTGTGTAT,0.992 ± 0.017
24,TTGTGTTCTT,1.01 ± 0.026
25,TTGTGTTTAG,1.016 ± 0.0044

# — the supplement of paper PMC10126150
